Results: patent publication US20210063414A1, “METHODS FOR PREVENTING AND/OR TREATING BONE LOSS CONDITIONS BY MODULATING IRISIN” (Dana-Farber Cancer Institute, Inc., priority 2018, published 2021)

Biological target: T1, MLO-Y4 cell surface proteins (Mus musculus, UniProt Q08189)
T1 construct: endogenous in cells; host or cells: MLO-Y4
T1 sequence (Q08189 1-693): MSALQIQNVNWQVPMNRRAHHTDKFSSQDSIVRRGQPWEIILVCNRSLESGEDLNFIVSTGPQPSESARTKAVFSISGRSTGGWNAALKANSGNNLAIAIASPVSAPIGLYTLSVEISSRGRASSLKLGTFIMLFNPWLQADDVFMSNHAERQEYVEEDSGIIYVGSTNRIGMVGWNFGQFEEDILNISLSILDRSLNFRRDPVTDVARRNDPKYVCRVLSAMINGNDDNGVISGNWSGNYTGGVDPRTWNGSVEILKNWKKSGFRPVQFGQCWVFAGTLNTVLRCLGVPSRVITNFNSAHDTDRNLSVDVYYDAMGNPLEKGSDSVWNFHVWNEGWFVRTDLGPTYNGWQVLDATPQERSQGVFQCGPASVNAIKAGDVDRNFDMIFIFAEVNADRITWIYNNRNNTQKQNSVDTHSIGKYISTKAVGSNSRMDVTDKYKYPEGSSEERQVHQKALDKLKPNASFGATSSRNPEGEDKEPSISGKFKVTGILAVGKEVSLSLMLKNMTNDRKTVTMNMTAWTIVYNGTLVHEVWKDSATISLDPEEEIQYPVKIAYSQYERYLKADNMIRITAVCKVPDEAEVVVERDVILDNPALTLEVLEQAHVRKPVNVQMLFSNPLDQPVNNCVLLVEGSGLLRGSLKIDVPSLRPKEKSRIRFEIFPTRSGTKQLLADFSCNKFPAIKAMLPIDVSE
Assay: Crosslinking/co-immunoprecipitation/mass spectrometry (TMT quantitative proteomics) to identify irisin receptors
Type: binding
Conditions: co-precipitated protein Tgm3 (TGM3_MOUSE)
In short: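 Relative protein abundance came from 6-plex TMT MS3 quantitation on an Orbitrap Fusion Lumos, after in-gel trypsin digestion of Coomassie-stained SDS-PAGE lanes. Input was a Ni-NTA pulldown (250 mM imidazole elution) of lysates from murine MLO-Y4 cells. These cells were treated on ice with His-tagged irisin or adipsin (10 nM, 20 min) in serum-free medium, then crosslinked with 1.5 mM DTSSP for 30 min.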

B1: irisin: secreted cleaved form of FNDC5; recombinant human/mouse irisin with C-terminal his tag produced in HEK293 cells (protein)
chain: DSPSAPVNVTVRHLKANSAVVSWDVLEDEVVIGFAISQQKKDVRMLRFIQEVNTTTRSCALWDLEEDTEYIVHVQAISIQGQSPASEPVLFKTPREAEKMASKNKDEVTMKE
modifications: left off: small tags and cut ends
notes: secreted cleaved form of FNDC5; recombinant human/mouse irisin with C-terminal his tag produced in HEK293 cells
- TMT signal-to-noise ratio: 45.8379
- irisin/adipsin TMT signal-to-noise ratio: 0.167
